The text below walks through data of patent US20030200555A1.

In the assay the target is 2081/anti-NF IgG. In words: ECL (ORIGEN Analyzer), competition with biotinylated-SEVNF.

B1: SEVNL peptide (peptide)
peptide: SEVNL
B1 returned a fold less effective in competition than SEVNF of 100 fold.
